Source: PMC3652662 (Journal of molecular recognition : JMR, 2009)
Starred links: 1 amine or outer side, 2 acyl side, 3 side chain; linkers in the order of their positions; H or OH if unused. Non-standard residues stand in square brackets, D forms with d. No end group written: not given here. X1 = (2S,4S)‑4‑(4-ferrocenyl-1H-1,2,3-triazol-1-yl)pyrrolidine‑2‑carboxylic acid, O=C([C@@H]1C[C@H](n2cc(-[c-]3cccc3)nn2)CN1[*:1])[*:2].[Fe+2].c1cc[cH-]c1

Columns and labels:
HIV-1_(SF162) gp120 = HIV-1_(SF162) gp120 (HIV-1 (strain SF162, clade B)); assay: SPR
HIV-1_(92UG037-08) gp120 = HIV-1_(92UG037-08) gp120 (HIV-1 (strain 92UG037-08, clade A)); assay: SPR

Work on RINNI[X1]WSEAMM-NH2 [HNG-156, ferrocene triazole peptide conjugate] yielded a Kd (HIV-1_(SF162) gp120) of 9 nM and a Kd (HIV-1_(92UG037-08) gp120) of 16.3 nM.
